The source of these data is patent publication US20190077863A1 (AERPIO PHARMACEUTICALS, published 2019).

In assay [1] the target is T1, Human VE-PTP (HPTP-β) containing first eight FN3 repeats with C-terminal His6 tag (Human ½ VE-PTP ECD) (human, UniProt P23467 23-820).
T1 construct: Produced in HEK293 cells and purified by the His tag; it was not cut off; also called Human Beta ½ ECD
T1 sequence: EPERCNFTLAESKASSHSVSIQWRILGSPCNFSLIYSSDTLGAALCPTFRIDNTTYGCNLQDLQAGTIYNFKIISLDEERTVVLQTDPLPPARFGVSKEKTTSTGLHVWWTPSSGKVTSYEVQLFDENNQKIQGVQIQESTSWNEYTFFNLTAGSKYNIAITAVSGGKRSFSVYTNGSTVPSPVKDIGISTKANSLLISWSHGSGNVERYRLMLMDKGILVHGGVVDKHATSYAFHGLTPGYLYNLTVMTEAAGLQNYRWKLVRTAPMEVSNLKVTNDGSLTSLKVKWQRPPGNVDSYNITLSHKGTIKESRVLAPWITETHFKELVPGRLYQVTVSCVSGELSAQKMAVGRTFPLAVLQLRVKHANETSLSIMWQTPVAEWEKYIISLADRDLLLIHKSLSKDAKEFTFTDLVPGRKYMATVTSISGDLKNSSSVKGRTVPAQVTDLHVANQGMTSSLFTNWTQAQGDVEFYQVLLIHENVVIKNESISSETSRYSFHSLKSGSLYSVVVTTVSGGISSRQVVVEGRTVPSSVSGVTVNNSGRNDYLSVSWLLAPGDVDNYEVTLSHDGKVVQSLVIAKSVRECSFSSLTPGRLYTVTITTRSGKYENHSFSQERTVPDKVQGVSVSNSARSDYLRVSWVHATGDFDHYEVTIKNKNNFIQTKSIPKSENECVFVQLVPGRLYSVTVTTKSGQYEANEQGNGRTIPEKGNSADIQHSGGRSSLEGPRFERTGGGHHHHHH
Put plainly: ELISA: HPTP-β antigen coated on the plate, antibody serially diluted (10,000 to 9.765 ng/mL), goat anti-human HRP (Fc specific), OD 450 nm. The procedure:
(§1) Each humanized variant was measured for affinity to the antigen, human VE-PTP (HPTP-β), using ELISA. […] of the VE-PTP (HPTP-β) antigen were immobilized onto 96-well Maxisorp plates in coating buffer (0.5 mM NaHCO₃ brought to pH 9.6 by the addition of 0.5 mM Na₂CO₃) overnight at 4° C. The coating buffer was then removed and 200 μL/well of block solution (3% w/v semi-skimmed milk powder, PBS) was added and agitated for 2 hrs at room temperature. The plate was washed four times with PBS-T (1% v/v Tween 20). 100 μL/well was added of purified R15E6 variants serially diluted from 10,000 ng/mL to 9.765 ng/mL in PBS-TB (0.05% v/v Tween 20, 0.5% w/v BSA). Following agitation for 2 hrs at room temperature, the plate was washed 4× with PBS-T. 100 μL/well goat anti-human HRP (Fc specific) at a ratio of 1:60,000 PBS was then added and the plates were incubated for an additional hour with agitation at room temperature. The plate was then washed 6× with PBS-T and once in PBS. Next, 100 μL/well of TMB substrate solution was added and incubated at 37° C. for 10 min. 50 μL 1 M HCl was added per well and the plate immediately read at 450 nm on a Tecan Sunrise plate reader. […] The binding of the HC4 variants was much lower than with the other heavy chains variants compared to HC0LC0 (FIG. 17).

Assay [2] addresses T1, Human VE-PTP (HPTP-β) containing first …. In words: ELISA, coated antigen, antibody 10,000 to 9.765 ng/mL. The procedure:
as §1
Background: ELISA stands for enzyme-linked immunosorbent assay.

For assay [3] the target is unchanged. In words: ELISA: HPTP-β antigen coated on the plate, antibody serially diluted, goat anti-human HRP (Fc specific), OD 450 nm. As to the method:
as §1

The target is the same in assay [4]. Put plainly: SPR (Biacore 3000), antibody captured on anti-human IgG, antigen as analyte 25-0 nM. As to the method: (§2) Samples of each variant were further assessed by Biacore analysis to determine the binding affinity. Antibody binding experiments were performed on Biacore 3000™ at 25° C. Assay buffer: 10 mM HEPES buffer (pH 7.4), 150 mM NaCl, 3 mM EDTA, 0.05% P20 (polyoxyethylenesorbitan). […] Conjugation buffer: 10 mM sodium acetate buffer (pH 5). The flow rate used for capturing the ligand was 5 μL/min. The flow rate for the kinetic analysis was 50 μL/min. Flow cell 1 and […] of the CM5 chip were coated with maximum amounts of goat anti-human IgG. Approximately 150 RU of the test antibody was captured on flow cell 2, 3, and 4 as indicated. The antigen was flowed over the chip. Binding of the antigen to the antibodies was monitored in real time. The KD was determined from the observed kₒₙ and koff values.
For orientation: In SPR one partner is held on a chip, and binding of the other changes the refractive index at the surface.

Assay [5] shares this target. In words: SPR (Biacore 3000), antibody captured on anti-human IgG, antigen as analyte 100 nM (single concentration). The procedure: as §2
A scouting analysis was performed using single analyte concentrations as indicated. At these concentrations, binding can be observed even if the ligand binding is weak. Flow cell 1 response was used for reference subtraction.

What is called Kd is the constant that tells how readily two partners part at equilibrium. By koff is commonly meant a measure of how fast the partners let go of each other. A higher koff goes with a short-lived complex. By kon is commonly meant a measure of how fast the partners come together. A higher kon goes with faster complex formation.

B1: humanized R15E6 variant HC1LC1 (antibody, human IgG4 S228P, kappa, V domains shown)
VH: EVQLVESGGGLVQPGGSLKLSCAASGFTFNANAMNWVRQASGKGLEWVGRIRTKSNNYATYYAGSVKDRFTISRDDSKNTAYLQMNSLKTEDTAAYYCVRDYYGSSAWITYWGQGTLVTVSS
VL: DVVMTQSPSFLSASVGDRVTITCKASQHVGTAVAWYQQRPGKAPKLLIYWASTRHTGVPSRFSGSGSGTEFTLTISSLQPEDFATYFCQQYSSYPFTFGGGTKLEIKR
notes: Human IgG4 (S228P) / kappa, expressed in CHO cells; Signal peptides left out by range; also called VH1-VL1
On to B1, for which, in assay [1], the binding result is listed as “binds”.

B2: humanized R15E6 variant HC4LC2 (antibody, human IgG4 S228P, kappa, V domains shown)
VH: LVQLVESGGGLVKPGGSLRLSCAASGFTFNANAMNWIRQAPGKGLEWVSRIRTKSNNYATYYAGSVKDRFTISRDNAKNSLYLQMNSLRAEDTAVHYCVRDYYGSSAWITYWGQGTLVTVSS
VL: DIVMTQSPDSLAVSLGERATINCKASQHVGTAVAWYQQKPGQPPKLLIYWASTRHTGVPDRFSGSGSGTDFTLTISSLQAEDVAVYYCQQYSSYPFTFGQGTKLEIKR
notes: Human IgG4 (S228P) / kappa, expressed in CHO cells; Signal peptides left out by range; also called VH4-VL2
Take B2: the binding result in assay [2] is reported as “binds”.

B3: humanized R15E6 variant HC3LC1 (antibody, human IgG4 S228P, kappa, V domains shown)
VH: EVQLVESGGGLVQPGRSLRLSCTASGFTFNANAMNWVRQAPGKGLEWVGRIRTKSNNYATYYAGSVKDRFTISRDDSKNIAYLQMNSLKTEDTAVYYCVRDYYGSSAWITYWGQGTLVTVSS
VL: DVVMTQSPSFLSASVGDRVTITCKASQHVGTAVAWYQQRPGKAPKLLIYWASTRHTGVPSRFSGSGSGTEFTLTISSLQPEDFATYFCQQYSSYPFTFGGGTKLEIKR
notes: Human IgG4 (S228P) / kappa, expressed in CHO cells; Signal peptides left out by range; also called VH3-VL1
Turning to B3, the binding result in assay [3] is on record as “binds”.

B4: humanized R15E6 variant HC3LC3 (antibody, human IgG4 S228P, kappa, V domains shown)
VH: EVQLVESGGGLVQPGRSLRLSCTASGFTFNANAMNWVRQAPGKGLEWVGRIRTKSNNYATYYAGSVKDRFTISRDDSKNIAYLQMNSLKTEDTAVYYCVRDYYGSSAWITYWGQGTLVTVSS
VL: DIQMTQSPFSLSASVGDRVTITCKASQHVGTAVAWYQQKPGKAPKLLIYWASTRHTGVPSRFSGSGSGTDFTLTISSLQPEDFATYFCQQYSSYPFTFGGGTKLEIKR
notes: Human IgG4 (S228P) / kappa, expressed in CHO cells; Signal peptides left out by range; also called VH3-VL3
Turning to B4, the binding result in assay [3] is reported as “binds”.

B5: humanized R15E6 variant HC3LC2 (antibody, human IgG4 S228P, kappa, V domains shown)
VH: EVQLVESGGGLVQPGRSLRLSCTASGFTFNANAMNWVRQAPGKGLEWVGRIRTKSNNYATYYAGSVKDRFTISRDDSKNIAYLQMNSLKTEDTAVYYCVRDYYGSSAWITYWGQGTLVTVSS
VL: DIVMTQSPDSLAVSLGERATINCKASQHVGTAVAWYQQKPGQPPKLLIYWASTRHTGVPDRFSGSGSGTDFTLTISSLQAEDVAVYYCQQYSSYPFTFGQGTKLEIKR
notes: Human IgG4 (S228P) / kappa, expressed in CHO cells; Signal peptides left out by range; also called VH3-VL2
In assay [4], B5 registered a Ka of 4.3e+07 M⁻¹, a Kd of 23.2 nM, a koff of 0.00123 s⁻¹ and a kon of 53900 M⁻¹ s⁻¹. Further, in assay [5], the Ka was determined as 2.06e+08 M⁻¹, the Kd was 4.84 nM, the koff is 0.000993 s⁻¹ and the kon stood at 205000 M⁻¹ s⁻¹.

B6: humanized R15E6 variant HC4LC1 (antibody, human IgG4 S228P, kappa, V domains shown)
VH: LVQLVESGGGLVKPGGSLRLSCAASGFTFNANAMNWIRQAPGKGLEWVSRIRTKSNNYATYYAGSVKDRFTISRDNAKNSLYLQMNSLRAEDTAVHYCVRDYYGSSAWITYWGQGTLVTVSS
VL: DVVMTQSPSFLSASVGDRVTITCKASQHVGTAVAWYQQRPGKAPKLLIYWASTRHTGVPSRFSGSGSGTEFTLTISSLQPEDFATYFCQQYSSYPFTFGGGTKLEIKR
notes: Human IgG4 (S228P) / kappa, expressed in CHO cells; Signal peptides left out by range; also called VH4-VL1
In the case of B6, the binding result in assay [2] is “binds”.

B7: humanized R15E6 variant HC1LC3 (antibody, human IgG4 S228P, kappa, V domains shown)
VH: EVQLVESGGGLVQPGGSLKLSCAASGFTFNANAMNWVRQASGKGLEWVGRIRTKSNNYATYYAGSVKDRFTISRDDSKNTAYLQMNSLKTEDTAAYYCVRDYYGSSAWITYWGQGTLVTVSS
VL: DIQMTQSPFSLSASVGDRVTITCKASQHVGTAVAWYQQKPGKAPKLLIYWASTRHTGVPSRFSGSGSGTDFTLTISSLQPEDFATYFCQQYSSYPFTFGGGTKLEIKR
notes: Human IgG4 (S228P) / kappa, expressed in CHO cells; Signal peptides left out by range; also called VH1-VL3
Consider B7, for which the binding result in assay [1] is “binds”.

B8: humanized R15E6 variant HC4LC4 (antibody, human IgG4 S228P, kappa, V domains shown)
VH: LVQLVESGGGLVKPGGSLRLSCAASGFTFNANAMNWIRQAPGKGLEWVSRIRTKSNNYATYYAGSVKDRFTISRDNAKNSLYLQMNSLRAEDTAVHYCVRDYYGSSAWITYWGQGTLVTVSS
VL: DIVMTQSPDSLAVSLGERATINCKASQHVGTAVAWYQQKPEQPPKLLIYWASTRHTGVPDRFSGSGSGTDFTLTISSLQAEDVAVYYCQQYSSYPFTFGGGTKVEIKR
notes: Human IgG4 (S228P) / kappa, expressed in CHO cells; Signal peptides left out by range; also called VH4-VL4
Regarding B8, the binding result in assay [2] is reported as “binds”.
